A word on the stoichiometry N: it is the number of molecules, sites or subunits per partner or assembly.

This passage reports stoichiometry N results from paper doi:10.1101/2022.12.06.519343.

Assay [1] deals with T1, GFP-His6::sExu531 (Drosophila melanogaster).
T1 chain: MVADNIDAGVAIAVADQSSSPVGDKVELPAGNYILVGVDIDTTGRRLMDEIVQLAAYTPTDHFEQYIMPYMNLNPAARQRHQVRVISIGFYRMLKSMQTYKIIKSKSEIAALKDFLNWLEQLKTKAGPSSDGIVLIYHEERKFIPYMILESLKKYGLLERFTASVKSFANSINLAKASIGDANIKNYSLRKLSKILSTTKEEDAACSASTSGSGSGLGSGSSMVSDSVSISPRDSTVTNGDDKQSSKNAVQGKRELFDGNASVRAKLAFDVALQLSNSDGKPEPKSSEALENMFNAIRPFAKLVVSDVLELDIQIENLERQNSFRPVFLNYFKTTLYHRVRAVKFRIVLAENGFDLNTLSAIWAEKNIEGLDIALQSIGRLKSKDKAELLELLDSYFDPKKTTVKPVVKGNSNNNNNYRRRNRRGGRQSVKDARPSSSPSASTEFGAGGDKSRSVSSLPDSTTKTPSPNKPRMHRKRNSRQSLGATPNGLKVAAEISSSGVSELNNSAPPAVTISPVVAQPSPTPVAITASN
As to the kind of experiment: SEC. The conditions noted are these: remark: other sources report otherwise.

Assay [2] concerns the target T1, GFP-His6::sExu531 (Drosophila …). As to the kind of experiment: SEC. The conditions noted are these: remark: other sources report otherwise.

B1: GFP-His6::sExu531 (natural protein)
chain: T1 chain
As to B1, the stoichiometry N is more than 3 in assay [1] and 3 in assay [2].
